The text below walks through data of patent publication EP3409295A1 (priority 2016, dated 2017).

The structures appear in SMILES notation. Like-named read-outs stand apart in the source and are kept apart here.

Series [1] relates to ICR mice. The settings on record: mouse, in vivo, iv.
The test system of series [2] is ICR mice. The series can be described thus: Tail flick test (heat radiation pain tester). Conditions: tail vein, morphine 5 mg/kg, other doses as in the writhing test. Format: in vivo.
The next series has as its system rats. The settings on record: rat, in vivo.
Series [3] relates to ICR mice. The settings on record: mouse, in vivo, iv, 10 mg/kg.
The nature of the next series: in vivo. The settings on record: female, SD, rat, iv, 5 mg/kg.
For series [4] the following is noted: SD rats.
Setting [5] is: intravenous administration, 10 mg/kg.

As to `COc1ccc2c3c1O[C@H]1C(=O)CC[C@@]4(O)[C@@H](C2)N(C)CC[C@]314` [Oxycodone, oxycodone], the “Number of Writhing” value with ICR mice [1] (5 mg/kg) turned out to be 9.9±3.2.

As to `COc1ccc2c3c1O[C@H]1[C@@H](O)C=C[C@H]4[C@@H](C2)N(C)CC[C@@]341` [Codeine, codeine], the “Number of Writhing” value in the series with ICR mice [1] (30 mg/kg) is on record as 13.4±3.1.

Consider `CN1CC[C@]23c4c5ccc(O)c4O[C@H]2[C@@H](O)C=C[C@H]3[C@H]1C5` [Morphine, morphine], for which the “Number of Writhing” value in the series with ICR mice [1] (5 mg/kg) was found to be 10.2±2.1. Moreover, the Heat pain value was 14.0 ± 2.2 s in the series with ICR mice [2] (0 hr (base value before administration)); 22.7 ± 5.1 s with ICR mice [2] (0.25 hr after administration); 42.4 ± 5.1 s in the series with ICR mice [2] (1hr after administration); 29.0 ± 4.7 s in the series with ICR mice [2] (2 hr after administration); 13.5 ± 1.2 s in the series with ICR mice [2] (6 hr after administration); 13.8 ± 1.5 s in the series with ICR mice [2] (24 hr after administration). In addition, the Nose-pokes in the series with rats was determined as 24.0±2.2.

Take `CN1CC[C@]23c4c5ccc(O)c4O[C@H]2[C@@H](OCCOCCOCCOCCOCCOCCO[C@H]2C=C[C@H]4[C@H]6Cc7ccc(O)c8c7[C@@]4(CCN6C)[C@H]2O8)C=C[C@H]3[C@H]1C5` [α-6-O-PEG6-(morphine)2]: in the series with ICR mice [3], the “Number of Writhing” value is on record as 24.3±3.4. Also, in “in vivo”, the level at 10 min worked out at 1200 ng/mL, the level at 1 h amounted to 123 ng/mL, the level at 3 h turned out to be 72 ng/mL and the tissue level at time at 10 min is 163 ng/g. In the series “in vivo”, the tissue level at time at 1 h stood at 133 ng/g and the tissue level at time at 3 h is 111 ng/g. In series [4] (setting [5]), the AUCINF came out at 158 ng·h/mL, the AUClast was found to be 144 ng·h/mL, the CL is 204 mL/min/k g and the MRTINF was 3.22 h. For the same compound, in series [4] (setting [5]), the T1/2 turned out to be 3.42 h, the Vss is on record as 38.6 L/kg and the Vz worked out at 57.7 L/kg. The F in series [4] (oral 50 mg/kg versus intravenous 10 mg/kg) came to 21.2%. In series [4] (oral administration, 50 mg/kg), this compound showed an AUCINF of 84 ng·h/mL, an AUClast of 73 ng·h/mL, a Cmax of 54 and a T1/2 of 4.8 h. Besides, the Tmax in series [4] (oral administration, 50 mg/kg) is 3 h.
